Assay results published in US20220387586A1 (Hoffmann-La Roche, published 2022).

T1: LAG3 on cells (recombinant CHO cells expressing Lag3) (human, UniProt P18627 29-525)
T1 construct: The cell ELISA paragraphs say only 'Lag3'; also called CHO-LAG3; Lag3 cells
T1 sequence: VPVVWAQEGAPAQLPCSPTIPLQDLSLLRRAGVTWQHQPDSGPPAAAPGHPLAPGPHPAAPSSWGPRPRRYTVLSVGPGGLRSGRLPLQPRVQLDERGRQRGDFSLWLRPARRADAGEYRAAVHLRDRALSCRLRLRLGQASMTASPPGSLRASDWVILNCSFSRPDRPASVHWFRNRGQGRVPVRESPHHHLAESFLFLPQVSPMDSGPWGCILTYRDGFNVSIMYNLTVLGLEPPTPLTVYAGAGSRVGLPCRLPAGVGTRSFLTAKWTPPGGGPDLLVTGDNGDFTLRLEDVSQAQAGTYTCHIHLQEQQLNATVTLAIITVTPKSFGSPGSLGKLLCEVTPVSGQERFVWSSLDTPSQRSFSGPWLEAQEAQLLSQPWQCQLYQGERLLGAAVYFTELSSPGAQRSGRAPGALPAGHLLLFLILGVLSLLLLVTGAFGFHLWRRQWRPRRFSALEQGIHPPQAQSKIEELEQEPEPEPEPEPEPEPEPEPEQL

T2: recombinant Human LAG-3 Fc Chimera Protein (R&D Systems, 2319-L3) (human, UniProt P18627 29-450)
T2 construct: Bought protein; also called huLAG3; not shown: Fc part of the chimera
T2 sequence: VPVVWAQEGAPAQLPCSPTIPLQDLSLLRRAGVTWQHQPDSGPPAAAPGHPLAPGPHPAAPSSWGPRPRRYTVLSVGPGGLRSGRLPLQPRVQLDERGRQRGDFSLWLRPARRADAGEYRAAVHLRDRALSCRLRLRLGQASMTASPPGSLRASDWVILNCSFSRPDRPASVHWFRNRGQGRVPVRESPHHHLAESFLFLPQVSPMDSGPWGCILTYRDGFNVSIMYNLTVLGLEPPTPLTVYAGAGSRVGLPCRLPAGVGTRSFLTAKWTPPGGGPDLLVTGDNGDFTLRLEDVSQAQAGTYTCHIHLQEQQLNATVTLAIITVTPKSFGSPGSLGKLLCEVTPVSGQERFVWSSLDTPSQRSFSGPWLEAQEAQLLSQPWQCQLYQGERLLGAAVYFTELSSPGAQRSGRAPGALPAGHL

T3: biotinylated-Lag3 (UniProt P18627 23-450, limits assumed, biotinylated)
T3 construct: Probably a human LAG3 ECD construct; also called Lag3 (MHCII/ELISA)
T3 sequence (looked up): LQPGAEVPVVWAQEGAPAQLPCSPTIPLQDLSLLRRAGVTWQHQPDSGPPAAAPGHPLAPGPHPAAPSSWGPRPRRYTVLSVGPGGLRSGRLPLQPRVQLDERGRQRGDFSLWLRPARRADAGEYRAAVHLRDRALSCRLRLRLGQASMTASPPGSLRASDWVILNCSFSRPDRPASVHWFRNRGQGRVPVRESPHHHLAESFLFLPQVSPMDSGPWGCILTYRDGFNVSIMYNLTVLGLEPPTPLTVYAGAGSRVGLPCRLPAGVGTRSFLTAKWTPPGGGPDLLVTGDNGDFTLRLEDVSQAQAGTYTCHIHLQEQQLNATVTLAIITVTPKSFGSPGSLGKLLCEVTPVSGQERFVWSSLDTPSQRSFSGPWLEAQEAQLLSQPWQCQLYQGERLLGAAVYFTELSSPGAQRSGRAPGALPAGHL

B1: PD1-0078 (antibody, V domains shown)
VH: QVQLQQPGAELVKPGASVKMSCKASGYTFTSTWMHWVKQRPGQGLEWIGAIDPSDSYTTYNQKFKGKATLTVDTSSTTAYMQLSSLTSEDSAVYYCTRSPFDYWGQGTTLTVSS
VL: DIVMTQSHKFMSTSVGDRVSITCKASQDVSTAVAWYQQKPGQSPKLLIYSASYRYTGVPDRFTGSGSGTDFTFAISSVQAEDLAVYYCQQHYSHPFTFGSGTKLEIK
B2: PD1/LAG3 0222 (bispecific antibody, human IgG1, kappa, L234A L235A)
heavy 1: not shown
heavy 2: QVQLQQWGAGLLKPSETLSLTCAVYGGSFSDYYWNWIRQPPGKGLEWIGEINHNGNTNSNPSLKSRVTLSLDTSKNQFSLKLRSVTAADTAVYYCAFGYSDYEYNWFDPWGQGTLVTVSSASTKGPSVFPLAPSSKSTSGGTAALGCLVEDYFPEPVTVSWNSGALTSGVHTFPAVLQSSGLYSLSSVVTVPSSSLGTQTYICNVNHKPSNTKVDEKVEPKSCDKTHTCPPCPAPEAAGGPSVFLFPPKPKDTLMISRTPEVTCVVVDVSHEDPEVKFNWYVDGVEVHNAKTKPREEQYNSTYRVVSVLTVLHQDWLNGKEYKCKVSNKALGAPIEKTISKAKGQPREPQVCTLPPSRDELTKNQVSLSCAVKGFYPSDIAVEWESNGQPENNYKTTPPVLDSDGSFFLVSKLTVDKSRWQQGNVFSCSVMHEALHNHYTQKSLSLSPGK
light 1: QVQLQQSGPELVRPGVSVKISCKGSGYTFTDYAMHWVKQSHARTLEWIGVISTYSGDTNYNQKFKDKATMTVDKSSSTAYLELARMTSEDSAIYYCARLGITTGFAYWGQGTLVTVSAASVAAPSVFIFPPSDEQLKSGTASVVCLLNNFYPREAKVQWKVDNALQSGNSQESVTEQDSKDSTYSLSSTLTLSKADYEKHKVYACEVTHQGLSSPVTKSFNRGEC
light 2: not shown
notes: 1+1 CrossMAb Vh-VL; also called PD1(0069)/aLAG3(25F7) 1+1; PD1-0069/LAG3 25F7 (1 + 1)
B3: PD1/LAG3 0224 (bispecific antibody, human IgG1, kappa, L234A L235A)
heavy 1: not shown
heavy 2: QVQLQQWGAGLLKPSETLSLTCAVYGGSFSDYYWNWIRQPPGKGLEWIGEINHNGNTNSNPSLKSRVTLSLDTSKNQFSLKLRSVTAADTAVYYCAFGYSDYEYNWFDPWGQGTLVTVSSASTKGPSVFPLAPSSKSTSGGTAALGCLVEDYFPEPVTVSWNSGALTSGVHTFPAVLQSSGLYSLSSVVTVPSSSLGTQTYICNVNHKPSNTKVDEKVEPKSCDKTHTCPPCPAPEAAGGPSVFLFPPKPKDTLMISRTPEVTCVVVDVSHEDPEVKFNWYVDGVEVHNAKTKPREEQYNSTYRVVSVLTVLHQDWLNGKEYKCKVSNKALGAPIEKTISKAKGQPREPQVCTLPPSRDELTKNQVSLSCAVKGFYPSDIAVEWESNGQPENNYKTTPPVLDSDGSFFLVSKLTVDKSRWQQGNVFSCSVMHEALHNHYTQKSLSLSPGK
light 1: DVQLQESGPGLVKPSQSLSLTCTVTGYSITSDYAWNWIRQFPGDKLEWLGYITYSGFTNYNPSLKSRISISRDTSKNQFFLQLNSVATEDTATYYCARWHGSAPWYFDYWGRGTTLTVSSASVAAPSVFIFPPSDEQLKSGTASVVCLLNNFYPREAKVQWKVDNALQSGNSQESVTEQDSKDSTYSLSSTLTLSKADYEKHKVYACEVTHQGLSSPVTKSFNRGEC
light 2: not shown
notes: 1+1 CrossMAb Vh-VL; also called PD1(0098)/aLAG3(25F7) 1+1; PD1-0098/LAG3 25F7 (1 + 1)
B4: PD1/LAG3 9010 (bispecific antibody, human IgG1, kappa, L234A L235A)
heavy: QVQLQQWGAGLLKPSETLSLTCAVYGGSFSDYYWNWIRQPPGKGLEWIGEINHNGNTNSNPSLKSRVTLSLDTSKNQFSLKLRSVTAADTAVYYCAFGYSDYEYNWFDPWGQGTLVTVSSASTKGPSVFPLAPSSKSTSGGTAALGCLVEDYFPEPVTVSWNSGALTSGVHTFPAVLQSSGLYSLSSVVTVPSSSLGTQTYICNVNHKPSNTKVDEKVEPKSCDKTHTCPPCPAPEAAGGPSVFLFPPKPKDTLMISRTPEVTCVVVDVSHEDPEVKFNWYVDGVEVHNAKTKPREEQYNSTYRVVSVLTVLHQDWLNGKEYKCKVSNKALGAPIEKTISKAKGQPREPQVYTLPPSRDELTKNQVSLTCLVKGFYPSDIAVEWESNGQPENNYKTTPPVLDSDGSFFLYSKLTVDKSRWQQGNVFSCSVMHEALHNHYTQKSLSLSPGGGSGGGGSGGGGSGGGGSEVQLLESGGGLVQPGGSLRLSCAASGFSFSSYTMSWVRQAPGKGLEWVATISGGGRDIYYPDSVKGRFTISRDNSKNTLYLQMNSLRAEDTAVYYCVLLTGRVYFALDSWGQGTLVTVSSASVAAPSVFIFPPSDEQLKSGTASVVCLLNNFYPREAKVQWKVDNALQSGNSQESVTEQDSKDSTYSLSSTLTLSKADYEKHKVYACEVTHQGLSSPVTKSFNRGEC
light 1: DIVMTQSPDSLAVSLGERATINCKASESVDTSDNSFIHWYQQKPGQSPKLLIYRSSTLESGVPDRFSGSGSGTDFTLTISSLQAEDVAVYYCQQNYDVPWTFGQGTKVEIKSSASTKGPSVFPLAPSSKSTSGGTAALGCLVKDYFPEPVTVSWNSGALTSGVHTFPAVLQSSGLYSLSSVVTVPSSSLGTQTYICNVNHKPSNTKVDKKVEPKSC
light 2: not shown
notes: 2+2 format

What was measured:
[1] = biological target: T4, biotinylated PD1-ECD-AviHis (human, UniProt Q15116 25-170, biotinylated); assay: PD-L2 replacing ELISA on coated PD1-ECD-AviHis; competitor PD-L2 Fc chimera
T4 construct: also called huPD1; hu PD1; not shown: Avi-His tag
Experimental: (§1) After washing (3×90 μl/well with PBST-buffer) 25 μl/well goat-anti-human H+L-POD (JIR, 109-036-088) was added in 1:2000 dilution and incubated at RT for 1 h on shaker. After washing (3×90 μl/well with PBST-buffer) 25 μl/well TMB (tetramethylbenzidine) substrate (Roche, #11835033001) was added and incubated until OD 2-3. Measurement took place at 370/492 nm.

[2] = biological target: T4, biotinylated PD1-ECD-AviHis; assay: ELISA on coated biotinylated PD1-ECD-AviHis
Experimental: as §1, with “JIR109-036-088)/Sheep-anti-mouse-POD (GE Healthcare; NA9310)” for “109-036-088)”, “1:2000/1:1000” for “1:2000”, “TMB” for “TMB (tetramethylbenzidine)”, “(Roche Catalogue No. 11835033001)” for “(Roche, #11835033001)”

[3] = biological target: T5, biotinylated cynoPD1-ECD-Biotin (cynomolgus, UniProt B0LAJ3 25-170, biotinylated; the site and any Avi or His tag are not stated in the passages shown); assay: ELISA on coated cynoPD1-ECD-Biotin
T5 construct: also called cyPD1
Experimental: as §1, with “JIR109-036-088)” for “109-036-088)”, “1:1000” for “1:2000”, “TMB” for “TMB (tetramethylbenzidine)”, “11835033001)” for “#11835033001)”

[4] = biological target: T6, full-length human PD1 on cells (human, UniProt Q15116 25-288); assay: cell ELISA on CHO-K1 cells expressing full-length human PD1 (rel. EC50)
T6 construct: also called CHO-PD1
Experimental: (to avoid internalization). After washing carefully (1×90 μl/well PBST) cells were fixed by adding 30 μl/well 0.05% Glutaraldehyde (Sigma, Cat.No: G5882, 25%) diluted in 1×PBS-buffer and incubated for 10 min at RT. After washing (3×90 μl/well PBST) 25 μl/well secondary antibody was added for detection: goat-anti-human H+L-POD (JIR, JIR109-036-088)/Sheep-anti-mouse-POD (GE NA9310) followed by 1 h incubation at RT on shaker. After washing (3×90 μl/well PBST) 25 μl/well TMB substrate solution (Roche 11835033001) was added and incubated until OD 1.0-2.0. Plates were measured at 370/492 nm.

[5] = biological target: T1, LAG3 on cells (recombinant CHO cells …); assay: cell ELISA on recombinant CHO cells expressing Lag3 (rel. EC50)
Experimental: After washing (1×90 μl in PBST) cells were fixed by addition of 30 μl/well glutaraldehyde to a final concentration of 0.05% (Sigma Cat.No: G5882), 10 min at room temperature. After washing (3×90 μl/well with PBST-buffer) 25 μl/well goat anti-Human Ig κ chain antibody-HRP conjugate (Milipore, AP502P) was added in a 1:1000 dilution and incubated at RT for 1 h. After washing (3×90 μl/well with PBST-buffer) 25 μl/well TMB substrate (Roche, 11835033001) was added and incubated for 6-10 min. Measurement took place on a Tecan Safire 2 instrument at 370/492 nm.

[6] = biological target: T2, recombinant Human LAG-3 Fc Chimera …; assay: ELISA on coated Human LAG-3 Fc Chimera (rel. EC50)
Experimental: After washing (3×90 μl/well with PBST-buffer) each well was incubated with 90 μl blocking buffer (PBS+2% BSA+0.05% Tween 20) for 1 h at room temperature. […] After washing (3×90 μl/well with PBST-buffer) 25 μl/well goat anti-Human Ig κ chain antibody-HRP conjugate (Milipore, AP502P) was added in a 1:2000 dilution and incubated at RT for 1 h. After washing (3×90 μl/well with PBST-buffer) 25 μl/well TMB substrate (Roche, 11835033001) was added and incubated for 2-10 min. Measurement took place on a Tecan Safire 2 instrument at 370/492 nm.

[7] = biological target: T3, biotinylated-Lag3; assay: ELISA, inhibition of biotinylated-Lag3 binding to MHC-II on A375 cells (competitor MHC-II)
Experimental: 25 μl/well of A375 cells (10000 cells/well) were seeded into tissue culture treated 384-well plates (Corning, 3701) and incubated at 37° C. overnight. […] After washing (1×90 μl in PBST) cells were fixed by addition of 30 μl/well glutaraldehyde to a final concentration of 0.05% (Sigma Cat.No: G5882), 10 min at room temperature. After washing (3×90 μl/well with PBST-buffer) 25 μl/well Poly-HRP40-Streptavidin (Fitzgerald, 65R-S104PHRPx) was added in a 1:2000 or 1:8000 dilution and incubated at RT for 1 h. After washing (3×90 μl/well with PBST-buffer) 25 μl/well TMB substrate (Roche, 11835033001) was added and incubated for 2 to 10 min. Measurement took place on a Tecan Safire 2 instrument at 370/492 nm.

[8] = biological target: T4, biotinylated PD1-ECD-AviHis; assay: ELISA on coated biotinylated PD1-ECD-AviHis (rel. EC50)
Experimental: After washing (3×90 μl/well with PBST-buffer) 25 μl/well goat-anti-human H+L-POD (JIR, JIR109-036-098) was added in 1:5000 dilution and incubated at RT for 1 h on a shaker. After washing (3×90 μl/well with PBST-buffer) 25 μl/well of TMB substrate (Roche, 11835033001) was added and incubated until OD 2-3. Measurement took place at 370/492 nm.

T6 sequence (Q15116 25-288 limits assumed): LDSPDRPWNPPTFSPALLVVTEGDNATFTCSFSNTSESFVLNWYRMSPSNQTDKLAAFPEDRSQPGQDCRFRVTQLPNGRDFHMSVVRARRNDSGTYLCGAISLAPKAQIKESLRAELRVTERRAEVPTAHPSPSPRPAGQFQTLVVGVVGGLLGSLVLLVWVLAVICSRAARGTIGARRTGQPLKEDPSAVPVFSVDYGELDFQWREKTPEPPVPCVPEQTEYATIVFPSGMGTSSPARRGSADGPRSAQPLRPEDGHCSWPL
T4 sequence (Q15116 25-170): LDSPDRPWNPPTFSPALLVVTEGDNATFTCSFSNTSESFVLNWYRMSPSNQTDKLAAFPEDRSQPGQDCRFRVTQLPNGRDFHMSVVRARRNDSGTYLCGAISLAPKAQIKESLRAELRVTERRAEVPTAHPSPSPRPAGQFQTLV
T5 sequence (B0LAJ3 entry or part of it limits assumed): as the sequence (Q15116 25-170) above, with D2E, P10A, V19L, T35A, Q75R, T144A counted along it

Row | Binder | IC50 [1] | EC50 [2] | EC50 [3] | EC50 [4] | EC50 [5] | EC50 [6] | IC50 [7] | EC50 [8]
1 | B1 | 0.086 µg/mL | 0.0263 µg/mL | 0.0224 µg/mL |  |  |  |  | 
2 | B2 |  |  |  | 0.28 nM | 0.72 nM | 1.14 nM | 0.77 nM | 0.16 nM
3 | B3 |  |  |  | 0.06 nM | 0.86 nM | 0.86 nM | 0.79 nM | 0.04 nM
4 | B4 |  |  |  | 0.36 nM | 0.48 nM | 0.05 nM | 0.52 nM | 0.04 nM
